Measured values from US20130101557A1.

Biological target: vascular endothelial growth factor (VEGF) (human) (UniProt P15692)
Experiment: cell-based or functional assay

UniProt P15692, sequence (P15692 other isoform, or with tags, fused parts or gaps limits assumed): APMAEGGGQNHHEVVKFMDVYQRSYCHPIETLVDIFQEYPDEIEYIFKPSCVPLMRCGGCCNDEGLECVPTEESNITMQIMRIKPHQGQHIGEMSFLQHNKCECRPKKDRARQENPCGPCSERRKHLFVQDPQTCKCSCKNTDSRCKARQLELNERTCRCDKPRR

Work on KH903 (Fc fusion) yielded a viability of HUVECs 72 h after infection with 30 MOI dE1-k35/KH903 (MTT assay), decrease against non-treated group of 53%.
